In IntAct's records for PubMed 31515488:

B1: U3 small nucleolar RNA-associated protein 14 homolog C (Homo sapiens), Q5TAP6 (parent)
chain: MNVNQVAENLALSHQEELVDLPKNYPLSENEDEGDSDGERKHQKLLEAIISLDGKNRRKLAERSEASLKVSEFSVSSEGSGEKLGLADLLEPVKTSSSLATVKKQLNRVKSKKVVELPLNKEKIEQIHREVAFSKTSQVLSKWDPIILKNQQAEQLVFPLGKEQPAIAPIEHALSGWKARTPLEQEIFNLLHKNKQPVTDPLLTPMEKASLQAMSLEEAKMHRAELQRARALQSYYEAKARKEKKIKSKKYHKVVKKGKAKKALKEFEQLQKVNPTVALEEMEKIENARMMERMSLKHQNSGKWAKSKAIMAKYDLEARQAMQEQLAKNKELTQKLQVASESEEEEGGTEVEELLVPHVANEVQMNVDGPNPWMFRSCTSDTKEAATQEDPEQVPELAAHEVSASEAEERPVAEEEILLREFEERQSLRKRSELNQDAEPASSQETKDSSSQEVLSELRALSQKLKEKHQSRKQKASSEGTVPQVQREEPAPEEAEPLLLQRSERVQTLEELEELGKEDCFQNKELPRPVLEGQQSERTPNNRPDAPKEKKEKEQLINLQNFLTTQSPSVRSLAVPTIIEELEDEEERDQRQMIKEAFAGDDVIRDFLKEKREAVEASKPKDVDLTLPGWGEWGGVGLKPSAKKRRQFLIKAPEGPPRKDKNLPNVIISEKRNIHAAAHQVQVLPYPFTHHRQFERTIQTPIGSTWNTQRAFQKLTTPKVVTKPGHIIKPIKAEDVGYQSSSRSDLPVIQRNPKRITTRHNKEEKL
partner: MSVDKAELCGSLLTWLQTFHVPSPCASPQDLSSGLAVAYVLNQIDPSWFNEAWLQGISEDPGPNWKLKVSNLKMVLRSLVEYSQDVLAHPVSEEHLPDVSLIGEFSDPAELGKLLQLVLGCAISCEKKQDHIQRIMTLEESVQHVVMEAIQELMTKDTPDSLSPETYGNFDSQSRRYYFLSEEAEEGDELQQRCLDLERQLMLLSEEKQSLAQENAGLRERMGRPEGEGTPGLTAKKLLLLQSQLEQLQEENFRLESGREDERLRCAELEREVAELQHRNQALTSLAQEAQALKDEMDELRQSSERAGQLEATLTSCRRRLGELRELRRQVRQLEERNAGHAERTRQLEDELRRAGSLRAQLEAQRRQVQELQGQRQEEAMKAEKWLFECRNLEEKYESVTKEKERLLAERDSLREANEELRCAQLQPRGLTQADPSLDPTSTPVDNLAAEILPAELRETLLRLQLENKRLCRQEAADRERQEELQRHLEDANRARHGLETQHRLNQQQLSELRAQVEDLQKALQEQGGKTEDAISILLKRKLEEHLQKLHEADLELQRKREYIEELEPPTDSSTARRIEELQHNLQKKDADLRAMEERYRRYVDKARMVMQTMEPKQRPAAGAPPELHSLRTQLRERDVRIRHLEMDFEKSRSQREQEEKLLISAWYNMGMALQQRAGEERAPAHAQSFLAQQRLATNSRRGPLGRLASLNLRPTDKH
B2: Microtubule-associated tumor suppressor candidate 2 (Homo sapiens), Q5JR59-3 (parent)
chain: MGHCCCKPYNCLQCLDKTNESALVKEKELSIELANIRDEVAFHTAKCEKLQKEKEELERRFEDEVKRLGWQQQAELQELEERLQLQFEAEMARLQEEHGDQLLSIRCQHQEQVEDLTASHDAALLEMENNHTVAITILQDDHDHKVQELMSTHELEKKELEENFEKLRLSLQDQVDTLTFQSQSLRDRARRFEEALRKNTEEQLEIALAPYQHLEEDMKSLKQVLEMKNQQIHEQEKKILELEKLAEKNIILEEKIQVLQQQNEDLKARIDQNTVVTRQLSEENANLQEYVEKETQEKKRLSRTNEELLWKLQTGDPTSPIKLSPTSPVYRGSSSGPSSPARVSTTPR
partner: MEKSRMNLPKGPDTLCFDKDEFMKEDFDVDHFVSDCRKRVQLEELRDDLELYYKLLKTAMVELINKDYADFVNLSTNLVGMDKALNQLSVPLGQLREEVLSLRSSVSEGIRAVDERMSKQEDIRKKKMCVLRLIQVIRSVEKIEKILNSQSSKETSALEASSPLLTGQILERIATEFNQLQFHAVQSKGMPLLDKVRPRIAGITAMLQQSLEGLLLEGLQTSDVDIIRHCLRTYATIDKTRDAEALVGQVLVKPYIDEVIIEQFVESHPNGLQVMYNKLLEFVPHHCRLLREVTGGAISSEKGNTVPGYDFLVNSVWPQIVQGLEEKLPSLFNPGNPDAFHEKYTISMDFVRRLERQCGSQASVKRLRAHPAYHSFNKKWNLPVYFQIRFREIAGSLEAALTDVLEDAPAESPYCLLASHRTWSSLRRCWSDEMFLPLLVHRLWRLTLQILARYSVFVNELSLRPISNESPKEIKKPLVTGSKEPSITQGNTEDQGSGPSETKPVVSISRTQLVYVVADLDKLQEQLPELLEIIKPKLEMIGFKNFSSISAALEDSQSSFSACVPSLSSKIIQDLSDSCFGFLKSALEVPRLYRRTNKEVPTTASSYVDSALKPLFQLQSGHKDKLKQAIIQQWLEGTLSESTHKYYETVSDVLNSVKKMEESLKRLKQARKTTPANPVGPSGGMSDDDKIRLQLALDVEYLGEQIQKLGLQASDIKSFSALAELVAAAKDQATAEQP
B3: Calcium-binding and coiled-coil domain-containing protein 2 (Homo sapiens), Q13137 (parent)
chain: MEETIKDPPTSAVLLDHCHFSQVIFNSVEKFYIPGGDVTCHYTFTQHFIPRRKDWIGIFRVGWKTTREYYTFMWVTLPIDLNNKSAKQQEVQFKAYYLPKDDEYYQFCYVDEDGVVRGASIPFQFRPENEEDILVVTTQGEVEEIEQHNKELCKENQELKDSCISLQKQNSDMQAELQKKQEELETLQSINKKLELKVKEQKDYWETELLQLKEQNQKMSSENEKMGIRVDQLQAQLSTQEKEMEKLVQGDQDKTEQLEQLKKENDHLFLSLTEQRKDQKKLEQTVEQMKQNETTAMKKQQELMDENFDLSKRLSENEIICNALQRQKERLEGENDLLKRENSRLLSYMGLDFNSLPYQVPTSDEGGARQNPGLAYGNPYSGIQESSSPSPLSIKKCPICKADDICDHTLEQQQMQPLCFNCPICDKIFPATEKQIFEDHVFCHSL
partner: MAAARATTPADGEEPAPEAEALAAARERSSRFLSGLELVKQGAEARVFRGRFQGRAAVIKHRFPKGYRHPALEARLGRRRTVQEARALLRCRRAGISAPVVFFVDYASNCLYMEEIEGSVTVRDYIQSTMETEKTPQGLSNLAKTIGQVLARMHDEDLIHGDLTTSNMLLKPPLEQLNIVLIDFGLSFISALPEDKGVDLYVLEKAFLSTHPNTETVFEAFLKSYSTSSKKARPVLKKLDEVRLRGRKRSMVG
B4: TNFAIP3-interacting protein 3 (Homo sapiens), Q96KP6 (parent)
chain: MAHFVQGTSRMIAAESSTEHKECAEPSTRKNLMNSLEQKIRCLEKQRKELLEVNQQWDQQFRSMKELYERKVAELKTKLDAAERFLSTREKDPHQRQRKDDRQREDDRQRDLTRDRLQREEKEKERLNEELHELKEENKLLKGKNTLANKEKEHYECEIKRLNKALQDALNIKCSFSEDCLRKSRVEFCHEEMRTEMEVLKQQVQIYEEDFKKERSDRERLNQEKEELQQINETSQSQLNRLNSQIKACQMEKEKLEKQLKQMYCPPCNCGLVFHLQDPWVPTGPGAVQKQREHPPDYQWYALDQLPPDVQHKANGLSSVKKVHP
B5: Retinoic acid receptor beta (Homo sapiens), P10826-2 (parent)
chain: MFDCMDVLSVSPGQILDFYTASPSSCMLQEKALKACFSGLTQTEWQHRHTAQSIETQSTSSEELVPSPPSPLPPPRVYKPCFVCQDKSSGYHYGVSACEGCKGFFRRSIQKNMIYTCHRDKNCVINKVTRNRCQYCRLQKCFEVGMSKESVRNDRNKKKKETSKQECTESYEMTAELDDLTEKIRKAHQETFPSLCQLGKYTTNSSADHRVRLDLGLWDKFSELATKCIIKIVEFAKRLPGFTGLTIADQITLLKAACLDILILRICTRYTPEQDTMTFSDGLTLNRTQMHNAGFGPLTDLVFTFANQLLPLEMDDTETGLLSAICLICGDRQDLEEPTKVDKLQEPLLEALKIYIRKRRPSKPHMFPKILMKITDLRSISAKGAERVITLKMEIPGSMPPLIQEMLENSEGHEPLTPSSSGNTAEHSPSISPSSVENSGVSQSPLVQ
partner: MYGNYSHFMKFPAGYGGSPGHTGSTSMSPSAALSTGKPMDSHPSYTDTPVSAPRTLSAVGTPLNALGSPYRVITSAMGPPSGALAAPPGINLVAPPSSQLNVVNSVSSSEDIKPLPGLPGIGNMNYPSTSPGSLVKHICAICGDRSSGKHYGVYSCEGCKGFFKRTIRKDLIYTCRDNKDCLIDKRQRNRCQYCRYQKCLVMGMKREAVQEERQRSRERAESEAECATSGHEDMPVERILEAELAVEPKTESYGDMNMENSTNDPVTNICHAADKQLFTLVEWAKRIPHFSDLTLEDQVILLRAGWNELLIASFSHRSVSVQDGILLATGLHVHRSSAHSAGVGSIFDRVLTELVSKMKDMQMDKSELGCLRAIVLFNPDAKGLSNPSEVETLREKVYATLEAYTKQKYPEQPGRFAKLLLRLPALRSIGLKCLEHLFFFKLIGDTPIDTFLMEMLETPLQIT
B6: Docking protein 2 (Homo sapiens), O60496 (parent)
chain: MGDGAVKQGFLYLQQQQTFGKKWRRFGASLYGGSDCALARLELQEGPEKPRRCEAARKVIRLSDCLRVAEAGGEASSPRDTSAFFLETKERLYLLAAPAAERGDWVQAICLLAFPGQRKELSGPEGKQSRPCMEENELYSSAVTVGPHKEFAVTMRPTEASERCHLRGSYTLRAGESALELWGGPEPGTQLYDWPYRFLRRFGRDKVTFSFEAGRRCVSGEGNFEFETRQGNEIFLALEEAISAQKNAAPATPQPQPATIPASLPRPDSPYSRPHDSLPPPSPTTPVPAPRPRGQEGEYAVPFDAVARSLGKNFRGILAVPPQLLADPLYDSIEETLPPRPDHIYDEPEGVAALSLYDSPQEPRGEAWRRQATADRDPAGLQHVQPAGQDFSASGWQPGTEYDNVVLKKGPK
partner: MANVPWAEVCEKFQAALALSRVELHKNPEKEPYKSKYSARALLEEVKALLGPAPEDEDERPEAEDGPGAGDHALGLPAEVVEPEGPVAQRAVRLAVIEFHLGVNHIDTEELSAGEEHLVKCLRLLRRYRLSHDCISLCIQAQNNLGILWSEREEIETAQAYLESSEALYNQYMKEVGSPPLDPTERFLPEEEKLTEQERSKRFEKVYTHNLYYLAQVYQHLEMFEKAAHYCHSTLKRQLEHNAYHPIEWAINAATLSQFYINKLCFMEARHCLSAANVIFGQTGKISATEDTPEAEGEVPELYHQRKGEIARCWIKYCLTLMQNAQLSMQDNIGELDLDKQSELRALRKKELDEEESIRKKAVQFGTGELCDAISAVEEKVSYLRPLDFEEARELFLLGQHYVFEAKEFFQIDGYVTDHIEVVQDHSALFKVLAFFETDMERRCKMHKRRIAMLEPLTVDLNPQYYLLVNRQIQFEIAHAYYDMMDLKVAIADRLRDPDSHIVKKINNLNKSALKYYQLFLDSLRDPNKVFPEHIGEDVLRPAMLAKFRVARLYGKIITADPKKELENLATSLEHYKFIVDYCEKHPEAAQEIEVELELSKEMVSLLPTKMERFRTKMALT

Variants of: B1
Conditions: with hook2_human HOOK2, Q96ED9

effect of a mutation on the interaction | Variant
with no effect | A652T

Variants of: B2
Conditions: with cog2_human COG2, Q14746

effect of a mutation on the interaction | Variant
with no effect | A89V

Variants of: B3
Conditions: with prpk_human TP53RK

effect of a mutation on the interaction | Variant
with no effect | V248A

Variants of: B4
Conditions: with taxb1_human TAX1BP1, Q86VP1
taxb1_human TAX1BP1, Q86VP1, sequence (Q86VP1 whole entry): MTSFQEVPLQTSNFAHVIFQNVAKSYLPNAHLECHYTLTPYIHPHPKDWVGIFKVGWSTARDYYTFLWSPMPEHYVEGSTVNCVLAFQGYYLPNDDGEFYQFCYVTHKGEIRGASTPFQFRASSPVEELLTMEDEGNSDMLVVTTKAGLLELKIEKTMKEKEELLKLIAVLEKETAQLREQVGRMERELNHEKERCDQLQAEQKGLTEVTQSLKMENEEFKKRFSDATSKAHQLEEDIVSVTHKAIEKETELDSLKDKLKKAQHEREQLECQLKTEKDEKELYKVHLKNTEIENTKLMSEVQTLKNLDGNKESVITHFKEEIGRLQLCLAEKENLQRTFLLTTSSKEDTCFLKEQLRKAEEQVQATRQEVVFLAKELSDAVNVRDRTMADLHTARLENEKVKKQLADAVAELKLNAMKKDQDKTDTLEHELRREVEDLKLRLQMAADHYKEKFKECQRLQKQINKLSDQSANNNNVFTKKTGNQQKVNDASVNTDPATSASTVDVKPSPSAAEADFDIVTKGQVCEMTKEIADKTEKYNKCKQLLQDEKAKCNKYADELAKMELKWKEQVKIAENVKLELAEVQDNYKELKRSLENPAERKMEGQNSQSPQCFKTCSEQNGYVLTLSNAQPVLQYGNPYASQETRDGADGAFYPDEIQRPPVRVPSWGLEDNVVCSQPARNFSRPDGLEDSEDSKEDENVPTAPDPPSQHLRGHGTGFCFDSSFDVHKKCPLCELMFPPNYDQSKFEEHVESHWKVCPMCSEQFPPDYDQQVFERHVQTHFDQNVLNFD

effect of a mutation on the interaction | Variant
with no effect | K99E

Variants of: B5
Conditions: with rxrg_human RXRG

effect of a mutation on the interaction | Variant
with no effect | V83I

Variants of: B6
Conditions: with kbp_human KIFBP

effect of a mutation on the interaction | Variant
disrupting interaction strength | P274L
